Experimental data: patent US20240270865A1 (INNATE PHARMA, published 2024)

Tests used:
[1] = molecular target: T1, human CD73 expressed on cells (human, UniProt P21589 27-549); assay: cell-based or functional assay
T1 sequence: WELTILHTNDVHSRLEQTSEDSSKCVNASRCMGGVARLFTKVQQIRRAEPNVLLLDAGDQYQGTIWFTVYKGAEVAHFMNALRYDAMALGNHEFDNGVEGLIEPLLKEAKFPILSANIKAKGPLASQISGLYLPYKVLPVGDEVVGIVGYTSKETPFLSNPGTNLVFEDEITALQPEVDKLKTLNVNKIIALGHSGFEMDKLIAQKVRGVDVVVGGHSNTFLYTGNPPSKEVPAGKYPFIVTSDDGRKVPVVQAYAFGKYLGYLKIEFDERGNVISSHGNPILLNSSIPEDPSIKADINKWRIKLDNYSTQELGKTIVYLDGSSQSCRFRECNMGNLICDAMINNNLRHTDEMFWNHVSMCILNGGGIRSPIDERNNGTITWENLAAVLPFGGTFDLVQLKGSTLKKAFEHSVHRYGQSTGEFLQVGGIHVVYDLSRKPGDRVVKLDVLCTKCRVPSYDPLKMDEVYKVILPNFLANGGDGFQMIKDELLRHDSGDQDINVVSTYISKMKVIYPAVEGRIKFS

CD73 in human serum = molecular target: T2, CD73 in human serum (human, UniProt P21589 27-574); assay: cell-based or functional assay
T2 sequence: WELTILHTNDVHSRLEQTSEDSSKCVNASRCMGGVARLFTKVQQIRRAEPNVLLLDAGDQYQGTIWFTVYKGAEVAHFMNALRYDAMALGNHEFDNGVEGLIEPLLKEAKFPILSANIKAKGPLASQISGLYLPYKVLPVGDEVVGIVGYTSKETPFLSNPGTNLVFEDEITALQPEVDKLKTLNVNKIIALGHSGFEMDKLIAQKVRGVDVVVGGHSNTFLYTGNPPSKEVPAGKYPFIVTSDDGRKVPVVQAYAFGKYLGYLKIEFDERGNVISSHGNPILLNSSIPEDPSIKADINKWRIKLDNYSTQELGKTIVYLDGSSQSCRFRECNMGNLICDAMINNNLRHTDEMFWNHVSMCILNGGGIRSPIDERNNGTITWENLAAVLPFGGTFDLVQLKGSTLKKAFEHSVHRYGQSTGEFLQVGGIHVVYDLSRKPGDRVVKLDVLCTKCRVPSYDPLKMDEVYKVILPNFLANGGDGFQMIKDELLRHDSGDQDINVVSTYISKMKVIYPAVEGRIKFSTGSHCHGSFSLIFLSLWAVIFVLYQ

B1: 2H4+2L1 anti-CD73 antibody (antibody, human IgG1, kappa, V domains shown)
VH: QIQLVQSGAEVKKPGASVKVSCKASGYTFASYNMYWVRQAPGQRLEWIGYIDPYNGGSSYNQKFKGRVTLTRDKSASTAYMELSSLRSEDTAVYYCARGYNNYKAWFAYWGQGTLVTVSS
VL: DIQMTQSPSSLSASVGDRVTITCKASQSVTNDVAWYQQKPGKAPKLLIYYASNRYTGVPSRFSGSGYGTDFTFTISSLQPEDIATYYCQQDYSSLTFGQGTKLEIKR
- enzymatic inhibition, in vitro assay on A375 tumor cells (IC50) [1]: 0.034 µg/mL
- enzymatic inhibition, in vitro assay on MDA-MB231 tumor cells (IC50) [1]: 0.127 µg/mL
- reversion of AMP inhibited T cell proliferation on CD4+ T cells (IC50) [1]: 0.0081 µg/mL
- reversion of AMP inhibited T cell proliferation on CD8+ T cells (IC50) [1]: 0.0077 µg/mL
- enzymatic inhibition, in vitro assay on human serum (IC50) (CD73 in human serum): 0.0123 µg/mL
